“And” between values parts separate entries of the source, which are not always exact repeats. Equal entries are not always repeated.

Experimental findings from patent CN113797333A (SHANGHAI JUNSHI BIOSCIENCES CO LTD; JUNMENG BIOSCIENCES CO …, dated 2021) are described below.

The target in the test is 全序列COVID-19刺突蛋白 (on COVID-19 pseudovirus) (COVID-19 (SARS-CoV-2), UniProt P0DTC2 14-1273). Nature of the test: cell-based or functional assay.

B1: 人源化单克隆抗体CB6 (antibody, V domains shown)
VH: EVQLVESGGGLVQPGGSLRLSCAASGFTVSSNYMSWVRQAPGKGLEWVSVIYSGGSTFYADSVKGRFTISRDNSMNTLFLQMNSLRAEDTAVYYCARVLPMYGDYLDYWGQGTLVTVSS
VL: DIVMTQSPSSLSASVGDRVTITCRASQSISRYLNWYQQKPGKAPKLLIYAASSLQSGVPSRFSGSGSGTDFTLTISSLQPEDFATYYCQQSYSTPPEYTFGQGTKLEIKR
Regarding B1, the “IC50 of inhibition of COVID-19 pseudovirus infection of Huh-7 cells (luciferase)” value is 0.183 nM and 0.0275 μg/ml.
